Data taken from patent US20170247475A1 (Boehringer Ingelheim, published 2017).
Like-named read-outs stand apart in the source and are kept apart here. One block for each binder: values may come before it.

Legend:
hAng2 [1] = biological target: T1, hAng2; experiment: competition ELISA hAng2/hTie2-Fc; blocked: hTie2-Fc
T1 construct: also called human Ang2
T1 chain: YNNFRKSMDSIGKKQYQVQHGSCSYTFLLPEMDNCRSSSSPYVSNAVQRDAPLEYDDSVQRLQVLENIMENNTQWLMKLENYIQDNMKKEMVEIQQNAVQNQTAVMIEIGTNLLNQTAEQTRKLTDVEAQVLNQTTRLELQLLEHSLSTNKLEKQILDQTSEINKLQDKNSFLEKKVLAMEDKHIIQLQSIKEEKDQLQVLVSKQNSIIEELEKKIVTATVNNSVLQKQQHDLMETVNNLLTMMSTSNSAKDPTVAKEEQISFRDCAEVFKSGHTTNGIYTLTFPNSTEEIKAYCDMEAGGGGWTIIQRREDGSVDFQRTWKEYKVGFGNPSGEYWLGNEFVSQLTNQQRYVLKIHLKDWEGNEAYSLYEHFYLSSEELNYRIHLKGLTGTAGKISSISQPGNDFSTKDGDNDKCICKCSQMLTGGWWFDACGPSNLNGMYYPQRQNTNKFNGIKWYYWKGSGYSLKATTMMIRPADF
Description: The human assay is also performed after incubation of the VHH with 0.5 μM human serum albumin. Additionally, a hAng2 mediated HUVEC survival assay is performed (see Example 5.5; FIG. 29).

hAng2 [2] = biological target: T2, hAng2; experiment: competition ELISA, blocking of hAng2 binding to hTie2
T2 construct: also called human Ang2
T2 chain: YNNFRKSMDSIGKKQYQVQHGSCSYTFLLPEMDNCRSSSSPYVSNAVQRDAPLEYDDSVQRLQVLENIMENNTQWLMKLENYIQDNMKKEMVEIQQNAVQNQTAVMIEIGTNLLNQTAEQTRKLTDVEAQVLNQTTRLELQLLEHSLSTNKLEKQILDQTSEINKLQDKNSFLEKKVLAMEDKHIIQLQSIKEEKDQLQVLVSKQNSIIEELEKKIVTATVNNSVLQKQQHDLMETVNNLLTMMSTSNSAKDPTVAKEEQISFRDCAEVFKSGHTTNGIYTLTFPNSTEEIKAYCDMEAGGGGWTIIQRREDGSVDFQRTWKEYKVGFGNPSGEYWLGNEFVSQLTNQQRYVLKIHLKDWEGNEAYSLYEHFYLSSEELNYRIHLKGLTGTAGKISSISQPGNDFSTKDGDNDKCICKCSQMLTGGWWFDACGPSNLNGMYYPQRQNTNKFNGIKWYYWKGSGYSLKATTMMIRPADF

mAng2 [3] = biological target: T3, mAng2; experiment: competition ELISA, blocking of mAng2 binding to mTie2
T3 construct: also called mouse Ang2
T3 chain: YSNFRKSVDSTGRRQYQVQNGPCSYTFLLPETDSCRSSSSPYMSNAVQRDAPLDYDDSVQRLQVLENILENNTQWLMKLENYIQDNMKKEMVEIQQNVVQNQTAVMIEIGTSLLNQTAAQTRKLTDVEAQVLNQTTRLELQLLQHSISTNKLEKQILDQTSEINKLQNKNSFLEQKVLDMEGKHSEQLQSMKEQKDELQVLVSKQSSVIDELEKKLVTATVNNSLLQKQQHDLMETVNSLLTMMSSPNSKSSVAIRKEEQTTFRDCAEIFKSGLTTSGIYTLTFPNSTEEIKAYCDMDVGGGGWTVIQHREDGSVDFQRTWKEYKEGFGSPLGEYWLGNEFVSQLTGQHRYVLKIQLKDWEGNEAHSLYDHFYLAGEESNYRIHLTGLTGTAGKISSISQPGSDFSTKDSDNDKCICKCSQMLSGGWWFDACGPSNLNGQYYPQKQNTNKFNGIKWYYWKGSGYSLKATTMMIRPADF

cAng2 [4] = biological target: T4, cAng2 (cynomolgus monkey); experiment: competition ELISA, blocking of cAng2 binding to cTie2
T4 construct: also called cyno Ang2

human VEGFR2-Fc chimera = biological target: T5, human VEGFR2-Fc chimera (human, UniProt P35968 20-764); experiment: binding ELISA on coated human VEGF121
T5 construct: bought (R&D Systems); also called hVEGFR2-Fc; VEGFR2-huFc
Description: Binding to recombinant human VEGF121 is assessed via a solid phase binding ELISA. Briefly, recombinant human VEGF121 (R&D Systems, Minneapolis, Minn., USA) is coated overnight at 4° C. at 1 μg/mL in a 96-well MaxiSorp plate (Nunc, Wiesbaden, Germany). Wells are blocked with a casein solution (1% in PBS).

hAng2 [5] = biological target: T2, hAng2; experiment: competition ELISA, blocking of hAng2 binding to hTie2
mAng2 [6] = biological target: T3, mAng2; experiment: competition ELISA, blocking of mAng2 binding to mTie2
cAng2 [7] = biological target: T4, cAng2; experiment: competition ELISA, blocking of cAng2 binding to cTie2; remark: listed apart in the source
[8] = biological target: T6, recombinant human VEGF165 (human, UniProt P15692-4 27-191); experiment: Biacore on VEGF165 (see Example 5.5)
T6 construct: also called hVEGF165; rhVEGF165
Description: Samples are injected for 2 min and allowed to dissociate up to 20 min at a flow rate of 45 μI/min. In between sample injections, the chip surface is regenerated with 100 mM HCl. HBS-EP+(Hepes buffer pH7.4+EDTA) is used as running buffer. Binding curves are fitted using a Two State Reaction model by Biacore T100 Evaluation Software v2.0.1.
Affinity of VEGFBII032 is determined by Biacore (see Example 5.5) and the melting temperature is determined in the thermal shift assay as described above.

[9] = biological target: T6, recombinant human VEGF165; experiment: ProteOn, periplasmic extract 1/10 on hVEGF165 chip
Description: One additional variant is constructed in which the potential oxidation site at position M30 (CDR1 region, see FIG. 19 indicated as bold italic residue) is removed by introduction of a M30I mutation.

T6 sequence (P15692 other isoform, or with tags, fused parts or gaps limits assumed): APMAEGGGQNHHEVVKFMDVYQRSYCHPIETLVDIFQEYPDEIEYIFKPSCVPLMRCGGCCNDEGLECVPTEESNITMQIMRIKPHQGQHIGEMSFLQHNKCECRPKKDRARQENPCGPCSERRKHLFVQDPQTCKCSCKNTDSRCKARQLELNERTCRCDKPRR
T5 sequence (P35968 20-764, change not shown): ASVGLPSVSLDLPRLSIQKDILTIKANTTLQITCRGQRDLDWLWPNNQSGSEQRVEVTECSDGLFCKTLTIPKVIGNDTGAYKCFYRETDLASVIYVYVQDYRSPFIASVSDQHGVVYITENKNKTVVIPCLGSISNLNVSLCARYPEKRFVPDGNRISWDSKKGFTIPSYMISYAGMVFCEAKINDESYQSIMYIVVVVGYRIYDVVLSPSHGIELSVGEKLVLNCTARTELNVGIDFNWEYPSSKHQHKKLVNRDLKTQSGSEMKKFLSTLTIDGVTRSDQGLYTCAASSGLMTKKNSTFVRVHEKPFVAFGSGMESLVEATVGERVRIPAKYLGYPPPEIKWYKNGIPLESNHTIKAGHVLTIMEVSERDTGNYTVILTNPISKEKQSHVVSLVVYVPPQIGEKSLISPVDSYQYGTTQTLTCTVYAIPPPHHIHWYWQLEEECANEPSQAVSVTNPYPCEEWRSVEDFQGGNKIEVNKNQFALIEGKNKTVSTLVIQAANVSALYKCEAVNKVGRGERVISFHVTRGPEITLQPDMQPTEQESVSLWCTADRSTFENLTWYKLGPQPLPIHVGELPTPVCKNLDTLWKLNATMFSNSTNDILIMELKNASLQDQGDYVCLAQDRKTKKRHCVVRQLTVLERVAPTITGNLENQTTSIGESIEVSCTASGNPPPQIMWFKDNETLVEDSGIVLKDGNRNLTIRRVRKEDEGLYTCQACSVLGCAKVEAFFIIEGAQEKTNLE

B3: ANGBII00006 (VHH)
bivalent VHH: EVQLVESGGGLVQPGGSLRLSCAASGITLDDYAIGWFRQAPGKEREGVSSIRDNGGSTYYADSVKGRFTISSDNSKNTVYLQMNSLRPEDTAVYYCAAVPAGRLRYGEQWYPIYEYDAWGQGTLVTVSSGGGGSGGGSEVQLLESGGGLVQPGGSLRLSCAASGITLDDYAIGWFRQAPGKEREGVSSIRDNGGSTYYADSVKGRFTISSDNSKNTVYLQMNSLRPEDTAVYYCAAVPAGRLRYGEQWYPIYEYDAWGQGTLVTVSS
notes: homodimeric anti-Ang2 VHH; also called 00908-9gs-00908
- IC50 (read off the curve) (hAng2 [2]): ~0.02 nM
- IC50 (read off the curve) (mAng2 [3]): ~0.03 nM
- IC50 (read off the curve) (cAng2 [4]): ~0.03 nM

B4: recombinant human VEGF121 (ligand, UniProt P15692-9 27-147, looked up)
chain: APMAEGGGQNHHEVVKFMDVYQRSYCHPIETLVDIFQEYPDEIEYIFKPSCVPLMRCGGCCNDEGLECVPTEESNITMQIMRIKPHQGQHIGEMSFLQHNKCECRPKKDRARQEKCDKPRR
notes: also called rhVEGF121; hVEGF121
- binding result (human VEGFR2-Fc chimera): binds

B5: ANGBII00001 (VHH)
bivalent VHH: EVQLVESGGGLVQAGGSLRLSCAASGFTFDDYALGWFRQAAGKEREGVSCIRCSDGSTYYADSVKGRFTISSDNAKNTVYLQMNSLKPEDTAVYYCAASIVPRSKLEPYEYDAWGQGTLVTVSSGGGGSGGGSEVQLVESGGGLVQAGGSLRLSCAASGFTFDDYALGWFRQAAGKEREGVSCIRCSDGSTYYADSVKGRFTISSDNAKNTVYLQMNSLKPEDTAVYYCAASIVPRSKLEPYEYDAWGQGTLVTVSS
notes: homodimeric anti-Ang2 VHH; also called 1D01-9gs-1D01
- IC50 (read off the curve) (hAng2 [5]): ~0.01 nM
- IC50 (read off the curve) (mAng2 [6]): ~0.02 nM
- IC50 (read off the curve) (cAng2 [7]): ~0.03 nM

B6: VEGFBII05B05 (VHH)
VHH: EVQLVESGGGLVQPGGSLRLSCVASGIRFMSMAWYRQAPGKHRELVARISSGGTTAYVDSVKGRFTISRDNSKNTVYLQMNSLKAEDTAVYYCNTFSSRPNPWGAGTQVTVSS
notes: also called VEGFBII5B05; VEGFBII5B05(wt)
- Kd [8]: 32 nM
- Binding level (RU) [9]: 242 RU
- koff [9]: 0.0615 s⁻¹

The next lines start with the values.

- IC50 (read off the curve) (hAng2 [1]): ~0.1 nM
B1: 7G08 (VHH)
VHH: EVQLVESGGGLVQPGGSLRLSCAASGFALDYYAIGWFRQVPGKEREGVSCISSSDGITYYVDSVKGRFTISRDNAKNTVYLQMNSLKPEDTAVYYCATDSGGYIDYDCMGLGYDYWGQGTQVTVSS

- IC50 (read off the curve) (hAng2 [2]): ~0.04 nM
- IC50 (read off the curve) (mAng2 [3]): ~0.1 nM
- IC50 (read off the curve) (cAng2 [4]): ~0.08 nM
B2: 00908 (VHH)
VHH: EVQLVESGGGLVQPGGSLRLSCAASGITLDDYAIGWFRQAPGKEREGVSSIRDNGGSTYYADSVKGRFTISSDNSKNTVYLQMNSLRPEDTAVYYCAAVPAGRLRYGEQWYPIYEYDAWGQGTLVTVSS
notes: also called F009100908

- Kd [8]: 44 nM
B7: VEGFBII032 (VHH)
VHH: EVQLVESGGGLVQPGGSLRLSCAASGIRFISMAWYRQAPGKQRELVARISSGGTTAYADSVKGRFTISRDNSKNTVYLQMNSLRAEDTAVYYCNTFSSRPNPWGQGTLVTVSS
notes: also called VEGFBII0032
